Results published in patent EP1364964A1, “Radiolabeled annexingalactose conjugates” (NEORX CORPORATION, priority 1994, dated 1995).

Experiments:
[1] = system: atrial thrombi and injured left atrium; set-up: species or system Yorkshire swine; conditions: in vivo
Protocol: • A. Animal Preparation - LA Vascular Thrombi. […] Continuous electrocardiographic monitoring was instituted using alligator clip electrodes. […] The incision was held open by a thoracotomy retractor. […] The cross-clamp was removed 10 minutes later. […] The intravenous line was then flushed with saline. […] Res. Commun. 80: 849-57, 1978). […] Image acquisition was performed as described below. […] A final blood sample was taken for well counting. […] Open Chest Sham. […] Closed Chest Sham. In seven animals, an ear intravenous line was established. No thoracotomy was performed. […] Ovalbumin. […] Indium Platelets. […] J. Cardiol. […] Non-specific Tc-Labeled Antibody. […] Imaging. […] The cobalt marker was then removed. […] These were followed by a 10 minute tomographic acquisition. […] Each image was scored as positive, equivocal or negative. […] Each vial was counted for 1 minute.
For the injured tissues and thrombi, multiple specimens were usually taken from the same animal. In those cases, the maximum ratio for any one specimen is reported, as well as the average of all specimens taken. The maximum for each animal was averaged across all animals and is reported as the Maximum Anx-V Ratio.

[2] = in vivo
Protocol: • A. Animal Preparation - LA Vascular Thrombi. Fasting 25-30 kg Yorkshire swine were sedated with intramuscular Telazol (5-10 mg/kg) (commercially available from AVECO Co.) and commercially available Atropine (1 mg, Elkins-Sinn, Inc., Cherry Hill, NJ). Surital (200 mg) (commercially available from Abbott Laboratories) anaesthesia was administered intravenously. The animals were intubated and given inhalation anaesthesia of 1.5-2% halothane (commercially available from Abbott Laboratories) and O2 sufficient to obtain a deep level of anesthesia and physiologic arterial blood gases. Continuous electrocardiographic monitoring was instituted using alligator clip electrodes. A cut down in the neck region was conducted, and an 8 french catheter (USCI Co, Billerica, MA) was placed in the right common carotid artery for blood pressure and arterial blood gas monitoring as well as for blood sampling. The swine were placed in a right lateral decubitus position, and a lateral thoracotomy was performed to expose the heart. The incision was held open by a thoracotomy retractor. The pericardium was opened, and the left atrial appendage was isolated from the left atrium by a vascular cross- clamp. Rubber tipped forceps were used to gently crush the appendage. Five minutes later, ricinoleate (1 mg, ICN Pharmaceuticals, Costa Mesa, CA) and thrombin (50 mg, Johnson and Johnson Co., Arlington, Texas) were injected into the LAA (left atrial appendage) using a 27 Ga needle. The cross-clamp was removed 10 minutes later. One hour after the crush injury, Tc-99m-annexin V, prepared in accordance with Example I above, was administered as an intravenous bolus dose in an ear vein. The intravenous line was then flushed with saline. In 7 animals, I-125 labeled ovalbumin was administered as a non-specific control preparable, for example, by the procedure described by Fraker et al., Biochem. Biophys. Res. Commun. 80: 849-57, 1978). Briefly, I-125-radiolabeled ovalbumin was prepared by the Iodogen method, employing 600 µg ovalbumin (Sigma Chemical Co., St. Louis, Missouri) and NaI-125 (2mCi, 0.92 nmol). Image acquisition was performed as described below. At the end of the experimental procedure (generally about 150 minutes), the animals were sacrificed by an intravenous bolus dose of 80 mEq of KCl while the animals were still under general anaesthetic. A final blood sample was taken for well counting. The heart was rapidly excised, washed free of blood and dissected into samples for well counting. Additional samples of carotid artery, lung, liver, spleen, muscle and kidney were obtained in some animals. • B. Controls. Five different types of controls were used: open chest sham; closed chest sham; ovalbumin; indium platelets; and non-specific Tc-99m-labeled antibody. • 1. Open Chest Sham. In three animals, the heart was exposed as above, but the left atrium was not isolated, crushed or injected with ricinoleate/thrombin. Marker images with a cobalt marker were performed as described below, and the Tc-99m-annexin V was injected 30-60 minutes after LAA exposure. Imaging and sample acquisition were identical to that described in A above. • 2. Closed Chest Sham. In seven animals, an ear intravenous line was established. No thoracotomy was performed. Sedation and anesthesia were identical to that described in A above. The Tc-99m-annexin V (+/other control radionuclides, such as I-125 ovalbumin or In-111-platelets) was administered and image acquisition was performed. • 3. Ovalbumin. I-125 ovalbumin was administered in 7 animals as a negative control protein. […] Indium Platelets. In-111 platelet labeling was performed in 7 animals as a positive well counting label. In-111 radiolabeled platelets were prepared in accordance with the procedure described by Stratton et al., Am. J. Cardiol. 47: 874, 1981 and Stratton et al., Circulation 69: 561, 1984. Imaging was not attempted because of the long serum half-life of the In-111-platelets. • 5. Non-specific Tc-Labeled Antibody. […]

[3] = system: freshly isolated human platelets; test: competition assay: inhibition of binding of unmodified 125I radiolabeled annexin V to platelets
Protocol: The ability of galactose-modified annexin V to bind to activated platelets was assessed by determining its ability to inhibit the binding of unmodified, ^125I radiolabeled annexin V to freshly isolated human platelets, following the method of Thiagarajan and Tait J. Biol. Chem. 265: 17240-43, 1990.

Molecule	highest non-target localization [1]	%ID/g a [2] [%ID/g]	%ID/g b [2] [%ID/g]	ID/g cleared in the slower b phase [2] [%]	a + b [2]	t1/2 a [2] [min]	t1/2 b [2] [min]	Competition (% of control) ([3]; absolute value (left column), inhibition of 125I annexin V binding to human platelets)	Competition (% of control) ([3]; value normalized to 100% for unmodified annexin V (right column))
Tc-99m-annexin V: annexin V radiolabeled with Tc-99m by a diamide dimercaptide N2S2 chelate (Example I)	kidney	0.0389	0.0300	43	0.0689	9.6	46		
1.1: galactose-modified annexin V, substitution ratio 1.1:1 (offering ratio 75:1) (conjugate, UniProt P08758 2-320, looked up, galactose-modified) Annexin A5: AQVLRGTVTDFPGFDERADAETLRKAMKGLGTDEESILTLLTSRSNAQRQEISAAFKTLFGRDLLDDLKSELTGKFEKLIVALMKPSRLYDAYELKHALKGAGTNEKVLTEIIASRTPEELRAIKQVYEEEYGSSLEDDVVGDTSGYYQRMLVVLLQANRDPDAGIDEAQVEQDAQALFQAGELKWGTDEEKFITIFGTRSVSHLRKVFDKYMTISGFQIEETIDRETSGNLEQLLLAVVKSIRSIPAYLAETLYYAMKGAGTDDHTLIRVMVSRSEIDLFNIRKEFRKNFATSLYSMIKGDTSGDYKKALLLLCGEDD								21.4 % of control	28.7 % of control
